Laboratory results from US7642231 (MAYO FOUNDATION FOR MEDICAL EDUCATION AND RESEARCH A …, dated 2010).
Where two headings read alike, the source gives them in different places. Numbered stars: 1 amine (or outer) side, 2 acyl side, 3 side chain; on linkers, the order of the positions; unused ones are H or OH. Square brackets hold non-standard residues; d marks the D form. Ends that are not written are not given here. dneoTrp = D-neo-Trp, (2R)-2-amino-3-(1H-indol-4-yl)propanoic acid, O=C([C@@H](Cc1cccc2[nH]ccc12)N[*:1])[*:2]; Ala(indol-4-yl) = N[C@@H](Cc1cccc2[nH]ccc12)C(=O)O; 1Nal = N[C@@H](Cc1cccc2ccccc12)C(=O)O; NMeR = CN[C@@H](CCCNC(=N)N)C(=O)O; Tle = CC(C)(C)[C@H](N)C(=O)O

Experiments:
[1] = molecular target: T1, human NTR1 (human, UniProt P30989 1-418); assay: radiolabeled competitive binding assay, CHO cells expressing human NTR (repeats Table II)
T1 sequence (P30989 whole entry): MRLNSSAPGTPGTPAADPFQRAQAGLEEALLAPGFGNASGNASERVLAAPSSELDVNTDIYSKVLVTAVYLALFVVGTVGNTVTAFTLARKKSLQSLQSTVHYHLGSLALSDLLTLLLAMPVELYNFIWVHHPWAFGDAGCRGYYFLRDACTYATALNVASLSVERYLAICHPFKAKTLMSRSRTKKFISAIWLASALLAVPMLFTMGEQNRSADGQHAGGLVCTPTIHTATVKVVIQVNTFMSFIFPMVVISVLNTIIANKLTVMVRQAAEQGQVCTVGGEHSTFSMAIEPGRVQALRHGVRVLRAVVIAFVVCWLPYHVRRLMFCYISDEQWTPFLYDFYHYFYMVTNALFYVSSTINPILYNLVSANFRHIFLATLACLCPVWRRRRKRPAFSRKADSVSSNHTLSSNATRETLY
Experimental: (§1) For binding assays, crude membranal preparations were prepared by centrifugation of the cellular pellet at 35,600×g for ten minutes. The supernatant was decanted and discarded, and the cellular pellet was resuspended in 2 mL of Tris-HCl, 1 mM EDTA (pH 7.4) followed by homogenization with a Brinkmann Polytron at setting 6 for ten seconds. Centrifugation was repeated as above and the supernatant was decanted and discarded. The resulting final cellular pellet was resuspended in 50 mM Tris-HCl, 1 mM EDTA, 0.1% bovine serum albumin, and 0.2 mM bacitracin.
(§2) Incubation was at 20° C. for 30 minutes. Each reaction was terminated by addition of cold 0.9% NaCl (5×1.5 mL) followed by rapid filtration through a GF/B filter strip that had been pretreated with 0.2% polyethylenimine.

[2] = molecular target: adrenergic α2 receptors, human brain tissue (human); assay: radiolabeled competitive binding assay, human brain tissue
[3] = molecular target: Dopamine receptors, human brain tissue (human) (UniProt P14416); assay: as above
Dopamine receptors, human brain tissue (human), sequence (P14416 whole entry): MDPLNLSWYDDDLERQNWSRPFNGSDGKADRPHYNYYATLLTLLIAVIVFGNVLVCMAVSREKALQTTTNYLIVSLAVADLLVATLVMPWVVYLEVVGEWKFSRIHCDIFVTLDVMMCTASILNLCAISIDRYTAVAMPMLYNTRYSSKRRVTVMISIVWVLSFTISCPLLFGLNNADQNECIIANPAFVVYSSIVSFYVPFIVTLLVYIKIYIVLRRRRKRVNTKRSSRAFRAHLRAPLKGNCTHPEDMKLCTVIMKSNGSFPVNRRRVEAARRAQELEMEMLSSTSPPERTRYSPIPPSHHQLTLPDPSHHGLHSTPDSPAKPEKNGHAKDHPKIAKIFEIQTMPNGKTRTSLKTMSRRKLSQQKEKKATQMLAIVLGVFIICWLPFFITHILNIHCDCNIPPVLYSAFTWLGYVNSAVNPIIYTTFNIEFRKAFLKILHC

[4] = molecular target: T1, human NTR1; assay: cell-based or functional assay
[5] = molecular target: T1, human NTR1; assay: competition with [3H]NT, membranes of CHO-K1 cells expressing human NTR1
[6] = molecular target: T2, rat NTR1 (rat, UniProt P20789 1-424); assay: radiolabeled competitive binding assay, CHO cells expressing rat NTR (repeats Table II)
T2 sequence (P20789 whole entry): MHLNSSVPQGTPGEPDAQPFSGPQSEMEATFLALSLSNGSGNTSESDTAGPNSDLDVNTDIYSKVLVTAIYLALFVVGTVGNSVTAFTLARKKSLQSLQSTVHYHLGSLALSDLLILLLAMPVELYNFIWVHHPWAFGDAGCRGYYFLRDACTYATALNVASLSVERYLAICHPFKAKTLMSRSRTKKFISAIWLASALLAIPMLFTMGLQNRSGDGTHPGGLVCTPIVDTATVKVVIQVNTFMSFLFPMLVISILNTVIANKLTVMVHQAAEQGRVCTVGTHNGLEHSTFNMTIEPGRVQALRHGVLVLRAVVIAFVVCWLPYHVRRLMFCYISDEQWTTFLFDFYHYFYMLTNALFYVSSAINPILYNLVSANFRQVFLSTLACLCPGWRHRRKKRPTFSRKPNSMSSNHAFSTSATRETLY
Experimental: as §1, §2

[7] = molecular target: T3, 5HT2A receptor in human brain tissue (human, UniProt P28223 1-471); assay: competition with [3H]ketanserin, human brain tissue
T3 construct: whole, on cells; Native receptor in human brain tissue, labeled with [3H]ketanserin; also called serotonin receptor
T3 sequence (P28223 whole entry): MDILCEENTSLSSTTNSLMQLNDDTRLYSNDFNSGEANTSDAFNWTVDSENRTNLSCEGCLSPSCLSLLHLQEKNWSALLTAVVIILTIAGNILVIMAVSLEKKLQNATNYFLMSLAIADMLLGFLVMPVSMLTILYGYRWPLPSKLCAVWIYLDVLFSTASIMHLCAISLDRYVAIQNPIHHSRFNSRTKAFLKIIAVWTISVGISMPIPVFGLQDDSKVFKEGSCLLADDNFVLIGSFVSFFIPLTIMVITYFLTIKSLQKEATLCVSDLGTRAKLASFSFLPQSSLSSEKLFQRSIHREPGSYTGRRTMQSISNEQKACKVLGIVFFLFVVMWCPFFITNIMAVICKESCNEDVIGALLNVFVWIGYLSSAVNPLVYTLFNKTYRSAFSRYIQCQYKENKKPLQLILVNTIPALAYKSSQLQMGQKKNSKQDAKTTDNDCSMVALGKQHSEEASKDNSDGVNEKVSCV

[8] = molecular target: T2, rat NTR1; assay: competition with [3H]NT, membranes of CHO-K1 cells expressing rat NTR1
Experimental: as §1, §2

[9] = molecular target: T2, rat NTR1; assay: cell-based or functional assay
[10] = molecular target: NT binding sites within rat brain (PAG and rest of brain homogenates) (rat); assay: 0.3 nM [125I]NT binding to PAG homogenate of control rats
[11] = molecular target: NT binding sites within rat brain (PAG and rest of brain homogenates) (rat); assay: 0.3 nM [125I]NT binding to rest-of-brain homogenate of NT69L-treated rats
[12] = molecular target: NT binding sites within rat brain (PAG and rest of brain homogenates) (rat); assay: 0.3 nM [125I]NT binding to PAG homogenate of NT69L-treated rats
[13] = molecular target: T1, human NTR1; assay: competition with [3H]NT, membranes of CHO-K1 cells expressing human NTR1
Experimental: as §1, §2

[14] = molecular target: T1, human NTR1; assay: competition with [3H]NT, CHO-K1 membranes; receptor not given, human taken from the context
Experimental: as §1, §2

[15] = molecular target: T1, human NTR1; assay: cell-based or functional assay; remark: listed apart in the source
[16] = molecular target: T1, human NTR1; assay: cell-based or functional assay; remark: listed apart in the source
[17] = molecular target: adrenergic α1 receptors, human brain tissue (human); assay: radiolabeled competitive binding assay, human brain tissue
[18] = molecular target: T1, human NTR1; assay: competition with [3H]NT, CHO-K1 membranes; receptor not given, human fits Table II
Experimental: as §1, §2

Molecule | Kd [7] | Kd [8] | PI Turnover EC50 [9] | Kd [13] | further results
NT69L (peptide) | 34600 nM | 0.82 nM | 1.34 nM |  | Kd [1]: 1.55 nM; Kd [2]: 58600 nM; Kd [3]: 13300 nM; PI Turnover EC50 [4]: 2.3 nM; PI turnover potency, fold improvement over Eisai analog [4]: 130 fold; Kd [5]: 1.55 nM; fold increase in binding affinity over Eisai [5]: 60 fold; Kd [6]: 0.82 nM; fold increase in binding affinity over Eisai [8]: 6 fold; PI turnover potency, fold improvement over Eisai analog [9]: 2 fold
Neurotensin (NT) (peptide) |  |  |  |  | dpm/µg protein (dpm/µg protein) [10]: 2.34; dpm/µg protein (dpm/µg protein) [11]: 2.1; dpm/µg protein (dpm/µg protein) [12]: 1.89
RRP[1Nal]IL (NT(8-13) analog) [NT34] |  | 0.046 nM |  |  | 
RRPYIL (Synthetic hexapeptide, residues 8-13 of neurotensin) [NT(8-13)] | 4400 nM |  |  |  | 
RRPWIL [NTW] |  | 0.34 nM |  | 3.2 nM | fold reduction in binding affinity compared to NT64L [14]: > 30 fold; PI Turnover EC50 [15]: 110 nM
RRP[Ala(indol-4-yl)]IL (NT(8-13) analog) [NT64L] | 6600 nM | 0.1 nM | 2.3 nM |  | 
RPYIL (Synthetic pentapeptide, residues 9-13 of neurotensin) [NT(9-13)] | 6340 nM | 46 nM |  | 30 nM | fold weaker than NT(8-13) [13]: > 200 fold; fold weaker than NT(8-13) [8]: > 200 fold; PI Turnover EC50 [15]: 380 nM
RRP[dneoTrp]IL (NT(8-13) analog) [NT64D] |  | 3.8 nM |  |  | 
[NMeR]KPW[Tle]L (Hexapeptide N-methyl-Arg, L-Lys, L-Pro, L-Trp, tert-Leu, L-Leu (Tsuchiya et al., EP application 89104302.8); also called Eisai compound; Eisai analog) [Eisai] |  | 5.4 nM | 3.1 nM | 95 nM | PI turnover potency, fold weaker at human than at rat NT receptor [16]: ~100 fold; fold weaker than at the rat receptor [13]: ~20 fold; PI Turnover EC50 [15]: 300 nM
[dK]RP[Ala(indol-4-yl)]IL (NT(8-13) analog) [NT67L] | 7400 nM | 0.21 nM | 13 nM |  | Kd [17]: 6900 nM; Kd [6]: 0.21 nM
RRP[Ala(indol-4-yl)][Tle]L (NT(8-13) analog) [NT65L] |  | 0.075 nM |  | 0.32 nM | fold decrease in binding affinity compared to NT64L [18]: 3 fold
[dK]RPYIL (NT(8-13) analog) [NT2] | 6800 nM | 0.8 nM |  |  | 
